Measured values: patent US12358960B2, “Selective targeting of ubiquitin- and ubiquitin-like E1-activating enzymes by structurally-stabilized peptides” (Dana-Farber Cancer Institute, Inc., priority 2019, dated 2025)
Entries after “also recorded” stand apart in the source; their conditions may differ. Bridge positions count the residues as written; N and C are the ends. Square brackets hold non-standard residues; d marks the D form. Ends that are not written are not given here. * marks the point of attachment. R8 = C=CCCCCCC[C@@](C)(N)C(=O)O; S5 = C=CCCC[C@](C)(N)C(=O)O; Nle = CCCC[C@H](N)C(=O)O; Dab = NCC[C@H](N)C(=O)O; Acryloyl = C=CC(=O)*

Molecular target: T1, Human E1 activating enzyme UBA1 (Homo sapiens, UniProt P22314)
T1 sequence (P22314 1-1058): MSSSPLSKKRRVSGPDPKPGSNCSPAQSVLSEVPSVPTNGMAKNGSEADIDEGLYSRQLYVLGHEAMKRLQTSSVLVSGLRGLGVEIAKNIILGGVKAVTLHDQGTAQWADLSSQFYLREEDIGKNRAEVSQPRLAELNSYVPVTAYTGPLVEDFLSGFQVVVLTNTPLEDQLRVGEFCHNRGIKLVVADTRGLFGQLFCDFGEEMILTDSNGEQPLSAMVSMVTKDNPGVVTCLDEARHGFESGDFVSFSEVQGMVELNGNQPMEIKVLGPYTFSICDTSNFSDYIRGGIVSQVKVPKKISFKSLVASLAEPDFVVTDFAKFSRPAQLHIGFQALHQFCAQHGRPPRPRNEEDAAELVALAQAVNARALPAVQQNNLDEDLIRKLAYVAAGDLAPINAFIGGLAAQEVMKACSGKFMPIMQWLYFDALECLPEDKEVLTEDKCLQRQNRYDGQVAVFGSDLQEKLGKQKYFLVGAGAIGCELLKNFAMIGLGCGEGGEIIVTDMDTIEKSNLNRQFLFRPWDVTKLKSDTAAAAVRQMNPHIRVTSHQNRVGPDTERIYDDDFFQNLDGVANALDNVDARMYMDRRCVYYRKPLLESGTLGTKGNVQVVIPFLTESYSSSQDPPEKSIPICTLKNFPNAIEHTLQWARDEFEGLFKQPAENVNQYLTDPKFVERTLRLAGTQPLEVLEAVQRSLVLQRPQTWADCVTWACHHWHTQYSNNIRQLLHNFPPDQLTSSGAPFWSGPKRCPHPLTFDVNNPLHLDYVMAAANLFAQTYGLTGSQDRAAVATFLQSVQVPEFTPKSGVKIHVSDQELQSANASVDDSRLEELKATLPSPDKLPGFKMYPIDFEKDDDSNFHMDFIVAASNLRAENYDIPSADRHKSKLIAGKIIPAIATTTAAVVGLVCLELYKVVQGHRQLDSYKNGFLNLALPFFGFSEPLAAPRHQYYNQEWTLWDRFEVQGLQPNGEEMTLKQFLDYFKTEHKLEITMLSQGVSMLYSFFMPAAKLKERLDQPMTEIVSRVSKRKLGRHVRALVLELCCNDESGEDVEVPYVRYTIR
Experiment: In vitro enzyme inhibition assay: E1-mediated ubiquitin thioester transfer to E2 (band shift, silver stain)
Format: biochemical
Conditions: for inhibition of E1-mediated thioester transfer to E2 by warhead-bearing stapled peptides: Example 8; for inhibition of E1-mediated thioester transfer to E2 by mutant / additional stapled peptides: SAH-UBE2A-11 variants and controls, Examples 4, 7, 13; for inhibition of E1-mediated ubiquitin transfer to E2 (conversion of E2 to E2~ubiquitin): 100 μM peptide, staple scan
Method: In vitro Enzyme Inhibition Assays: To assess an E2 hA peptide's inhibition of an E1 enzyme, an in vitro enzyme inhibition assay can be used, for example. The in vitro enzyme inhibition assay measures an E2 hA peptide's ability to inhibit conjugation of ubiquitin to E2 by E1. Briefly, recombinant E1 (e.g., UBA1), recombinant E2 (e.g., UBE2A), ubiquitin, and Mg-ATP are combined in the presence of an E2 hA peptide or vehicle control (e.g., 1% DMSO) for a period of time (e.g., 30 minutes) at room temperature in a buffer containing, e.g., 50 mM NaCl, 50 mM HEPES pH 7.5. Control reaction includes no E1. Reactions are quenched by addition of SDS-containing loading dye and samples are resolved on a gel (e.g., a 4-12% Bis-Tris protein gel) under nonreducing conditions. Proteins on the gel are visualized via, e.g., silver stain. Conjugation of ubiquitin to E2 by E1 is monitored by conversion of free E2 (˜17 kDa) to E2˜ubiquitin conjugate (˜26 kDa).
Control reaction included no E1 enzyme. Reactions were quenched by addition of SDS-containing loading dye and samples were resolved on a 4-12% Bis-Tris protein gel under nonreducing conditions. Proteins were visualized via silver stain. Conjugation of ubiquitin to E2 by E1 was monitored by conversion of free E2 (17 kDa) to E2˜ubiquitin conjugate (26 kDa).
The ability of the peptides to inhibit E1-mediated thioester transfer to E2 was evaluated. Human E1 activating enzyme UBA1 (10 nM), UbcH5b E2 enzyme (150 nM), ubiquitin (1 μM), and Mg-ATP (20 μM) were combined in the presence of stapled peptide at a range of concentrations or vehicle control (1% DMSO) for 45 minutes at room temperature in buffer containing 50 mM NaCl, 50 mM HEPES, 1 mM TCEP pH 7.5. Reactions were quenched by addition of SDS-containing loading dye and samples were resolved on a 4-12% Bis-Tris protein gel under nonreducing conditions. Proteins were visualized via silver stain. Conjugation of ubiquitin to E2 by E1 was monitored by conversion of free E2 (17 kDa) to E2˜ubiquitin conjugate (26 kDa). Inhibition percentage was calculated from densitometry of silver stain images.
Streptavidin-biotin pull-down assays: For recombinant protein pull-downs, 10 pmol recombinant human UBA1 was incubated with 5 nmol C-terminally biotinylated SAH-UBE2A or DMSO vehicle control in a total volume of 1 mL binding buffer (50 mM NaCl, 20 mM HEPES, pH 7.4, 5 mM DTT) for 1.5 hours at 4° C. 30 μL of pre-equilibrated streptavidin agarose beads were then added and incubated for an additional 1.5 hours at 4° C. The beads were pelleted by centrifugation and washed three times with NP-40 buffer (20 mM HEPES, pH 7.4, 50 mM NaCl, 5 mM DTT, 0.5% [v/v] NP-40) before eluting the protein sample from the beads by heating at 70° C. for 10 min in 3×SDS loading buffer. Samples were subjected to electrophoresis and silver staining (Pierce 24612). For pull-down from cellular lysates, 0.75 mg HeLa cell lysate was incubated with 5 nmol C-terminally biotinylated SAH-UBE2A or DMSO vehicle control in a total volume of 1 mL binding buffer (50 mM NaCl, 20 mM HEPES, pH 7.4, 5 mM DTT) containing protease-phosphatase inhibitor cocktail for 2 hours at 4° C. 30 μL of pre-equilibrated streptavidin agarose beads (ThermoFisher 20357) were then added and incubated for an additional 1.5 hours at 4° C. The beads were pelleted by centrifugation and washed three times with NP-40 buffer (20 mM HEPES, pH 7.4, 50 mM NaCl, 5 mM DTT, 0.5% [v/v] NP-40) before eluting the protein sample from the beads by heating at 70° C. for 10 min in 3×SDS loading buffer. Proteins were separated by SDS-PAGE gel electrophoresis and detected by western blot against UBE1 (Abcam ab34711). In vitro Enzyme Inhibition Assays: Recombinant human E1 activating enzyme UBA1 (10 nM), E2 enzyme (150 nM), ubiquitin (1 μM), and Mg-ATP (20 μM) are combined in the presence of peptide or vehicle control (1% DMSO) for 45 minutes at room temperature in buffer containing 50 mM NaCl, 50 mM HEPES pH 7.5. Control reaction includes no E1 enzyme. […]

| Substance | inhibition of E1-mediated thioester transfer to E2 by warhead-bearing stapled peptides | inhibition of E1-mediated ubiquitin transfer to E2 (conversion of E2 to E2~ubiquitin) (UbcH5b E2 enzyme, 45 minutes) | also measured |
| --- | --- | --- | --- |
| BPSSAX1RQLLRKX2LJEIQ ([Nle]PSSA[R8]RQLLRK[S5]L[Dab](Acryloyl)EIQ; staple 6-13; not fully specified (N-terminus, C-terminus); printed as BPSSAX1RQLLRKX2LJEIQ) [SEQ ID NO:844, warhead-bearing stapled peptide, J acrylamide-bearing Dab at A11, staple A2 and A9] | inhibited E1-mediated thioester transfer to E2 | – | – |
| BSTPX1RARLBRX2FKRLQ (Ac-[Nle]STP[R8]RARL[Nle]R[S5]FKRLQ-NH2; staple 5-12) [SEQ ID NO:817] | – | – | inhibition of E1-mediated thioester transfer to E2 by mutant / additional stapled peptides: impair the inhibitory activity of SAH-UBE2A-11 |
| BPSSX1SRQLLRX2QLKEIQ [SEQ ID NO:49] | – | inhibited conversion of E2 to E2˜ubiquitin by E1 | – |
| BSTPX1RERLBRX2FKRLQ (Ac-[Nle]STP[S5]RERL[Nle]R[R8]FKRLQ-NH2; staple 5-12) [SAH-UBE2A-11-R7E, point mutant negative control stapled peptide] | – | – | inhibition of E1-mediated thioester transfer to E2 by mutant / additional stapled peptides: reduced inhibitory activity as compared to SAH-UBE2A; inhibition of E1-mediated thioester transfer to a variety of human E2 enzymes (panel of human E2 enzymes (UBE2A, UBE2B, UBE2C, UBE2D1-4 etc.)): diminished inhibitory capacity; also recorded: mitigated by a single point mutation (R7E) |
| BPSSASRQX1LRKQLKX2IQ [SEQ ID NO:53] | – | inhibited conversion of E2 to E2˜ubiquitin by E1 | – |
| BPSSASRQLX1RKQLKEX2Q [SEQ ID NO:54] | – | unable to inhibit E1-mediated ubiquitin transfer to E2 | – |
| X1ALKRIHX2ELJDLARD ([R8]ALKRIH[S5]EL[Dab](Acryloyl)DLARD; staple 1-8; not fully specified (N-terminus, C-terminus); printed as X1ALKRIHX2ELJDLARD) [SEQ ID NO:763, warhead-bearing stapled peptide, J acrylamide-bearing Dab at A11, staple A1 and A8] | did not inhibit E1-mediated thioester transfer to E2 | – | – |
| BPSSASRQLLRKQX2KEIX2 [SEQ ID NO:48] | – | unable to inhibit E1-mediated ubiquitin transfer to E2 | – |
| BPSSASX1QLLRKQX2KEIQ [SEQ ID NO:51] | – | unable to inhibit E1-mediated ubiquitin transfer to E2 | – |
| BX1LKRIHKX2LJDLARD ([Nle][R8]LKRIHK[S5]L[Dab](Acryloyl)DLARD; staple 2-9; not fully specified (N-terminus, C-terminus); printed as BX1LKRIHKX2LJDLARD) [SEQ ID NO:727, warhead-bearing stapled peptide, J acrylamide-bearing Dab at A11, staple A2 and A9] | inhibited E1-mediated thioester transfer to E2 | – | – |
| BX1LKRIHJX2LNDLARD ([Nle][R8]LKRIH[Dab](Acryloyl)[S5]LNDLARD; staple 2-9; not fully specified (N-terminus, C-terminus); printed as BX1LKRIHJX2LNDLARD) [SEQ ID NO:691, warhead-bearing stapled peptide, J acrylamide-bearing Dab at A8, staple A2 and A9] | did not inhibit E1-mediated thioester transfer to E2 | – | – |
| BX1LKRIHKX2LNDLARD [SAH-UBE2D2-11] | – | – | inhibition of E1-mediated thioester transfer to E2, dose response (range of peptide concentrations, UbcH5b E2 enzyme, 45 minutes): inhibited E1-mediated thioester transfer to E2 in a dose-dependent manner; also recorded: dose-dependently inhibit E1-mediated thioester transfer to E2 |
| BPSSASRQLX2RKQX2KEIQ [SEQ ID NO:45] | – | unable to inhibit E1-mediated ubiquitin transfer to E2 | – |
| BSTPX1RRRLJRX2FKRLQ ([Nle]STP[R8]RRRL[Dab](Acryloyl)R[S5]FKRLQ; staple 5-12; not fully specified (N-terminus, C-terminus); printed as BSTPX1RRRLJRX2FKRLQ) [SEQ ID NO:680, warhead-bearing stapled peptide, J acrylamide-bearing Dab at A7, staple A2 and A9] | inhibited E1-mediated thioester transfer to E2 | – | – |
| BPSSAX1RQLLRJX2LKEIQ ([Nle]PSSA[R8]RQLLR[Dab](Acryloyl)[S5]LKEIQ; staple 6-13; not fully specified (N-terminus, C-terminus); printed as BPSSAX1RQLLRJX2LKEIQ) [SEQ ID NO:842, warhead-bearing stapled peptide, J acrylamide-bearing Dab at A8, staple A2 and A9] | inhibited E1-mediated thioester transfer to E2 | – | – |
| BPSSX1SRQLLRX2QLJEIQ ([Nle]PSS[R8]SRQLLR[S5]QL[Dab](Acryloyl)EIQ; staple 5-12; not fully specified (N-terminus, C-terminus); printed as BPSSX1SRQLLRX2QLJEIQ) [SEQ ID NO:841, warhead-bearing stapled peptide, J acrylamide-bearing Dab at A11, staple A1 and A8] | inhibited E1-mediated thioester transfer to E2 | – | – |
